This note sets out measurements from the supplement of paper PMC11780869.

In this series the test system is Bacillus subtilis. The series can be described thus: cleaved RNA product abundance (RNA/gDNA barcode ratio) relative to median wild-type variant (ratio to wild type); higher = more accumulation of the downstream cleavage product. Particulars: experiment (reporter, strain, medium): exp 8a: truncated aprE reporter, strain BJT201 with 2% xylose (RNase J1 expressed); cleavage site: glnRA (positions -5 to +31 mutated). The procedure, abridged:
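Reporter mRNAs (truncated aprE or tetM) carrying barcoded, mutagenized RNase Y cleavage-site windows were made from oligos with a 9% error rate and integrated into the B. subtilis chromosome. Cultures grew in LB at 37°C from OD600 0.0003 to 0.3. Cleaved RNA was gel-selected, reverse transcribed and barcode-sequenced alongside genomic DNA barcodes, with UMI collapsing. Cleaved product abundance is the RNA:gDNA barcode ratio per variant, scaled to the median wild-type variant.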
“CGACATGTCCCGCTTCTTTCATTAATCCGTGAGCAACTGTTTTGCTATATATATTTACCTTTTAAGAGGAGGAAT”: the “cleaved RNA product abundance” value stood at 0.87.
For “CGACATGTCCCGCTTCTTTCATTAATCCGTGAGCAACTGTTTTGCTATATTCATTTACCTTTTAAGAGGAGGAAT” the value was 0.177; for “CGACATGTCCCGCTTCTTTCATTAATCCGTGAGCAACTGTTTTGCTTTATACATTTACCTTTTAAGAGGAGGAAT”, 0.184.
As for “CGACATGTCCCGCTTCTTTCATTAATCCGTGAGCAAGTGTTTTGCTATATACATTTACCTTTTAAGAGGAGGAAT”, the figure is 0.375; as for “CGACATGTCCCGCTTCTTTCATTAATCCGTGAGCAGCTGTTTTGCTATATACATTTACCTTTTAAGAGGAGGAAT”, 0.231; as for “CGACATGTCCCGCTTCTTTCATTAATCCGTGATCAACTGTTTTGCTATATACATTTACCTTTTAAGAGGAGGAAT”, 0.346.
As for “CGACATGTCCCGCTTCTTTCATTAATCCGTTAAAAACTGTTTTGCTATATACATTTACCTTTTAAGAGGAGGAAT”, the figure is 0.292; as for “CGACATGTCCCGCTTCTTTCATTAATCCGTTAACAAATGTTTTGCTATATACATTTACCTTTTAAGAGGAGGAAT”, 0.287; as for “CGACATGTCCCGCTTCTTTCATTAATCCGTTAACAACAGTTTTGCTATATACATTTACCTTTTAAGAGGAGGAAT”, 0.183.
Regarding “CGACATGTCCCGCTTCTTTCATTAATCCGTTAACAACTATTTTGCTATATACATTTACCTTTTAAGAGGAGGAAT”, the “cleaved RNA product abundance” value stood at 0.275.
For “CGACATGTCCCGCTTCTTTCATTAATCCGTTAACAACTGATTTGCTATATACATTTACCTTTTAAGAGGAGGAAT” the value was 0.248; for “CGACATGTCCCGCTTCTTTCATTAATCCGTTAACAACTGTATTGCTATATACATTTACCTTTTAAGAGGAGGAAT”, 0.316; for “CGACATGTCCCGCTTCTTTCATTAATCCGTTAACAACTGTCTTGCTATATACATTTACCTTTTAAGAGGAGGAAT”, 0.0713.
For “CGACATGTCCCGCTTCTTTCATTAATCCGTTAACAACTGTGTTGCTATATACATTTACCTTTTAAGAGGAGGAAT” the value was 0.24; for “CGACATGTCCCGCTTCTTTCATTAATCCGTTAACAACTGTTATGCTATATACATTTACCTTTTAAGAGGAGGAAT”, 0.219.
Consider “CGACATGTCCCGCTTCTTTCATTAATCCGTTAACAACTGTTTGGCTATATACATTTACCTTTTAAGAGGAGGAAT”, for which the “cleaved RNA product abundance” value was 0.159.
As for “CGACATGTCCCGCTTCTTTCATTAATCCGTTAACAACTGTTTTACTATATACATTTACCTTTTAAGAGGAGGAAT”, the figure is 0.222.
Take “CGACATGTCCCGCTTCTTTCATTAATCCGTTAACAACTGTTTTCCTATATACATTTACCTTTTAAGAGGAGGAAT”: the “cleaved RNA product abundance” value was 0.263.
Consider “CGACATGTCCCGCTTCTTTCATTAATCCGTTAACAACTGTTTTGATATATACATTTACCTTTTAAGAGGAGGAAT”, for which the “cleaved RNA product abundance” value is 0.235.
As for “CGACATGTCCCGCTTCTTTCATTAATCCGTTAACAACTGTTTTGCAATATACATTTACCTTTTAAGAGGAGGAAT”, the figure is 0.185.
As for “CGACATGTCCCGCTTCTTTCATTAATCCGTTAACAACTGTTTTGCCATATACATTTACCTTTTAAGAGGAGGAAT”, the figure is 0.114; as for “CGACATGTCCCGCTTCTTTCATTAATCCGTTAACAACTGTTTTGCGATATACATTTACCTTTTAAGAGGAGGAAT”, 0.215.
For “CGACATGTCCCGCTTCTTTCATTAATCCGTTAACAACTGTTTTGCTAAATACATTTACCTTTTAAGAGGAGGAAT”, the “cleaved RNA product abundance” value came to 0.202.
With “CGACATGTCCCGCTTCTTTCATTAATCCGTTAACAACTGTTTTGCTATAAACATTTACCTTTTAAGAGGAGGAAT”, the “cleaved RNA product abundance” value came out at 0.207.
As for “CGACATGTCCCGCTTCTTTCATTAATCCGTTAACAACTGTTTTGCTATACACATTTACCTTTTAAGAGGAGGAAT”, the figure is 0.162.
As for “CGACATGTCCCGCTTCTTTCATTAATCCGTTAACAACTGTTTTGCTATATAAATTTACCTTTTAAGAGGAGGAAT”, the figure is 0.227; as for “CGACATGTCCCGCTTCTTTCATTAATCCGTTAACAACTGTTTTGCTATATACAATTACCTTTTAAGAGGAGGAAT”, 0.242; as for “CGACATGTCCCGCTTCTTTCATTAATCCGTTAACAACTGTTTTGCTATATACACTTACCTTTTAAGAGGAGGAAT”, 0.329.
Consider “CGACATGTCCCGCTTCTTTCATTAATCCGTTAACAACTGTTTTGCTATATACATATACCTTTTAAGAGGAGGAAT”, for which the “cleaved RNA product abundance” value is 0.195.
For the sequence “CGACATGTCCCGCTTCTTTCATTAATCCGTTAACAACTGTTTTGCTATATACATTTAACTTTTAAGAGGAGGAAT”, the “cleaved RNA product abundance” value worked out at 0.24.
For “CGACATGTCCCGCTTCTTTCATTAATCCGTTAACAACTGTTTTGCTATATACATTTACATTTTAAGAGGAGGAAT” the value was 0.202.
As for “CGACATGTCCCGCTTCTTTCATTAATCCGTTAACAACTGTTTTGCTATATACATTTACCATTTAAGAGGAGGAAT”, the figure is 0.176.
As for “CGACATGTCCCGCTTCTTTCATTAATCCGTTAACAACTGTTTTGCTATATACATTTACCCTTTAAGAGGAGGAAT”, the figure is 0.198.
As for “CGACATGTCCCGCTTCTTTCATTAATCCGTTAACAACTGTTTTGCTATATACATTTACCTTTTAAGAGGAGGAAT”, the “cleaved RNA product abundance” value amounted to 0.217.
As for “CGACATGTCCCGCTTCTTTCATTAATCCGTTAACAACTGTTTTGCTATATACATTTACTTTTTAAGAGGAGGAAT”, the figure is 0.253.
For “CGACATGTCCCGCTTCTTTCATTAATCCGTTAACAACTGTTTTGCTATATACATTTAGCTTTTAAGAGGAGGAAT” the value was 0.204; for “CGACATGTCCCGCTTCTTTCATTAATCCGTTAACAACTGTTTTGCTATATACATTTATCTTTTAAGAGGAGGAAT”, 0.236.
Take “CGACATGTCCCGCTTCTTTCATTAATCCGTTAACAACTGTTTTGCTATATACATTTCCCTTTTAAGAGGAGGAAT”: the “cleaved RNA product abundance” value is 0.155.
On to “CGACATGTCCCGCTTCTTTCATTAATCCGTTAACAACTGTTTTGCTATATACATTTGCATTTTAAGAGGAGGAAT”, for which the “cleaved RNA product abundance” value was 0.202.
As for “CGACATGTCCCGCTTCTTTCATTAATCCGTTAACAACTGTTTTGCTATATACATTTTCCTTTTAAGAGGAGGAAT”, the figure is 0.0904.
As for “CGACATGTCCCGCTTCTTTCATTAATCCGTTAACAACTGTTTTGCTATATAGATTTACCTTTTAAGAGGAGGAAT”, the figure is 0.201; as for “CGACATGTCCCGCTTCTTTCATTAATCCGTTAACAACTGTTTTGCTATATATATTTACCTTTTAAGAGGAGGAAT”, 0.2.
For “CGACATGTCCCGCTTCTTTCATTAATCCGTTAACAACTGTTTTGCTGTATACATTTACCTTTTAAGAGGAGGAAT” the value was 0.166; for “CGACATGTCCCGCTTCTTTCATTAATCCGTTAACAACTGTTTTGGTATATACATATAGCTTTTAAGAGGAGGAAT”, 0.275; for “CGACATGTCCCGCTTCTTTCATTAATCCGTTAACAACTGTTTTGTTATATACATTTACCTTTTAAGAGGAGGAAT”, 0.271.
On to “CGACATGTCCCGCTTCTTTCATTAATCCGTTAACAACTGTTTTTCTATATACATATACCTTTTAAGAGGAGGAAT”, for which the “cleaved RNA product abundance” value was determined as 0.304.
As for “CGACATGTCCCGCTTCTTTCATTAATCCGTTAACAACTGTTTTTCTATATACATTTACCTTTTAAGAGGAGGAAT”, the figure is 0.258.
For “CGACATGTCCCGCTTCTTTCATTAATCCGTTAACAACTTTTTTGCTATATACATTTACCTTTTAAGAGGAGGAAT” the value was 0.193; for “CGACATGTCCCGCTTCTTTCATTAATCCGTTAACAATTGTTTTGCTACATACATTTACCTTTTAAGAGGAGGAAT”, 0.135.
As for “CGACATGTCCCGCTTCTTTCATTAATCCGTTAACAATTGTTTTGCTATATACATTTACCTTTTAAGAGGAGGAAT”, the figure is 0.241; as for “CGACATGTCCCGCTTCTTTCATTAATCCGTTAACACCTGTTTTGCTATATACATTTACCTTTTAAGAGGAGGAAT”, 0.258; as for “CGACATGTCCCGCTTCTTTCATTAATCCGTTAACATCTGTTTTGCTATATACATTTACCTTTTAAGAGGAGGAAT”, 0.25.
As to “CGACATGTCCCGCTTCTTTCATTAATCCGTTAACTACTGTTTTGCTATATACATTTACCTTTTAAGAGGAGGAAT”, the “cleaved RNA product abundance” value came out at 0.265.
For “CGACATGTCCCGCTTCTTTCATTAATCCGTTAATAACTGTTTTGCTATATACATTTAACTTTTAAGAGGAGGAAT” the value was 0.205; for “CGACATGTCCCGCTTCTTTCATTAATCCGTTAATAACTGTTTTGCTATATACATTTACCTTTTAAGAGGAGGAAT”, 0.262; for “CGACATGTCCCGCTTCTTTCATTAATCCGTTACCAAATGTTTTGCTATATACATTTACCTTTTAAGAGGAGGAAT”, 0.256.
Regarding “CGACATGTCCCGCTTCTTTCATTAATCCGTTACCAACAGTTTTGCTATATACATTTACCTTTTAAGAGGAGGAAT”, the “cleaved RNA product abundance” value worked out at 0.215.
As for “CGACATGTCCCGCTTCTTTCATTAATCCGTTACCAACTATTTTGCTATATACATTTACCTTTTAAGAGGAGGAAT”, the figure is 0.178; as for “CGACATGTCCCGCTTCTTTCATTAATCCGTTACCAACTCTTTTGCTATATACATTTACCTTTTAAGAGGAGGAAT”, 0.128.
For “CGACATGTCCCGCTTCTTTCATTAATCCGTTACCAACTGATTTGCTATATACATTTACCTTTTAAGAGGAGGAAT” the value was 0.205; for “CGACATGTCCCGCTTCTTTCATTAATCCGTTACCAACTGTGTTGCTATATACATTTACCTTTTAAGAGGAGGAAT”, 0.277.
